Laboratory results published in US20060241048A1.

What was measured:
[1] = target: bovine serum albumin (BSA) (bovine) (UniProt P02769); assay: cell-based or functional assay
[2] = target: C5b-8 and C5b-9 complexes (human); assay: cell-based or functional assay

Sequence of UniProt P02769 (P02769 25-607 limits assumed): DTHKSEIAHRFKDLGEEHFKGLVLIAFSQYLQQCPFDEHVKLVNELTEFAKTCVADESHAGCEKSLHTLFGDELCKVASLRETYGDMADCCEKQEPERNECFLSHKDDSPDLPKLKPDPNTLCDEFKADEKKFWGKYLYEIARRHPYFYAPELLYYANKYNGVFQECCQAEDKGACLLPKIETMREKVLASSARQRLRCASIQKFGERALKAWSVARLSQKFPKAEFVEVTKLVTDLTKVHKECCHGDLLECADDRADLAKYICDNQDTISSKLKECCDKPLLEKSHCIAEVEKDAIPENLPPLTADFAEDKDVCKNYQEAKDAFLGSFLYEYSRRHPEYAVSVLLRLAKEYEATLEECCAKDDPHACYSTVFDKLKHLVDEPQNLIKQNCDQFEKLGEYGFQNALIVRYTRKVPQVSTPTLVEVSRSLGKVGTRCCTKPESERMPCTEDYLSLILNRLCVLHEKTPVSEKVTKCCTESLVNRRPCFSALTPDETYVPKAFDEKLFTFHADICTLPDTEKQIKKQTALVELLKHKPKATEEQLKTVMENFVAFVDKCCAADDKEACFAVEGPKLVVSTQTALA

Molecule	IH50 of inhibition of haemolysis, 4 mg/ml BSA [No BSA: 0.26 at the 13th table, row 8, column 3] [1] [nM]	IH50 of inhibition of haemolysis, 40 mg/ml BSA [No BSA: 0.26 at the 13th table, row 8, column 3] [1] [nM]	IH50 (nM) of inhibition of haemolysis, Presence of Albumin (40 mg/ml) [absence of albumin: 0.26 at the 11th table, row 9, column 3] [1] [nM]	IH50 (nM), reactive lysis of guinea pig erythrocytes, Absence of HSA [2] [nM]	IH50 (nM), reactive lysis of guinea pig erythrocytes, Presence of HSA (2.7 mg/ml) [2] [nM]
APT070, [SCR1-3]-Cys-S-S-[MSWP-1] (from UniProt P17927 42-237) (other; unit assumed)	1.3	10			
APT070, [SCR1-3]-Cys-S-S-[MSWP-1] (from UniProt P17927 42-237)			10		
Recombinant human CD59 (lacking the GPI anchor), with an amino-terminal methionine and a carboxy-terminal cysteine (APT2439) (protein) MLQCYNCPNPTADCKTAVNCSSDFDACLITKAGLQVYNKCWKFEHCNFNDVTTRLRENELTYYCCKKDLCNFNEQLENC				600	400
APT3280, conjugate of APT2439 and APT3146 via a disulphide (protein, human, bisMyr at the N-terminal Lys; Cys (thiopyridylated before conjugation) disulphide-linked to CD59; carboxy-terminal Cys disulphide-linked to APT3146) MLQCYNCPNPTADCKTAVNCSSDFDACLITKAGLQVYNKCWKFEHCNFNDVTTRLRENELTYYCCKKDLCNFNEQLENC peptide: KSSKSPSKKDDKKPGDC				0.1	0.08
APT3073, conjugate of APT2439 and APT2258 via a disulphide (protein, human, N-terminal myristoyl (Myr-); C-terminal amide (-NH2); Cys (2-SPy before conjugation) disulphide-linked to CD59; carboxy-terminal Cys disulphide-linked to APT2258) MLQCYNCPNPTADCKTAVNCSSDFDACLITKAGLQVYNKCWKFEHCNFNDVTTRLRENELTYYCCKKDLCNFNEQLENC peptide: GSSKSPSKKDDKKPGDC				0.8	6
